What all share (assay type): biochemical
One assay has as its target T1, cathepsin B (Homo sapiens, UniProt P07858).
T1 construct: purchased Wako Pure Chemical Industries, Ltd
Description: cysteine protease inhibitory activity (Z-Phe-Arg-MCA fluorescence, method of Barrett et al.). The settings on record: pH 5.5, 37° C., 10 minutes. How it is done: (§1) Inhibitory activities against cysteine proteases including papain, cathepsin B, cathepsin L and cathepsin S (these proteases are available from Wako Pure Chemical Industries, Ltd.) were determined using commercially available bovine lactoferrin (manufactured by Morinaga Milk Industry Co., Ltd.) as a test sample. The inhibitory activity was measured with reference to the method by Barrett et al. (“Methods in Enzymology,” Vol. 80, p 535-561, 1981) as described below. Namely, Z-Phe-Arg-MCA (final concentration of […]: manufactured by Peptide Institute, Inc.) was added as a substrate to 0.1 M acetic acid buffer solution (pH 5.5) in which sample was dissolved at each concentration. Then, cysteine protease (a protease selected from papain, cathepsin B, cathepsin L and cathepsin S in the present test: manufactured by Wako Pure Chemical Industries, Ltd.) solution (final concentration: 15 units/ml) was added, the whole solution was mixed and the reaction was carried out at 37° C. for 10 minutes. Subsequently, fluorescence intensity (excitation wavelength: 370 nm, emission wavelength: 460 nm) of AMC (7-Amino-4-Methyl-Coumarin) released from the digested substrate was measured with a fluorescence spectrometer (manufactured by Hitachi, Ltd.).

The target in a further assay is T2, cathepsin L (Homo sapiens, UniProt P07711).
T2 construct: purchased Wako Pure Chemical Industries, Ltd
T2 sequence (P07711 114-333, species assumed): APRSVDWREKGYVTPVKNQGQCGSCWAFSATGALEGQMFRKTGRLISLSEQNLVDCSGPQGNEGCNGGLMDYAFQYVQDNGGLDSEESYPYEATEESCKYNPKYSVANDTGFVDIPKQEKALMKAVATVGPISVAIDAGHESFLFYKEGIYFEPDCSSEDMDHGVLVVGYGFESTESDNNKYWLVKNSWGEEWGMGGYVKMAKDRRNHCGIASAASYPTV
The description is as above. The settings on record: pH 5.5, 37° C., 10 minutes. As for the experimental part:
as §1

Assay [1] concerns the target T3, papain (Carica papaya, UniProt P00784).
T3 construct: purchased Wako Pure Chemical Industries, Ltd
T3 sequence (P00784 134-345): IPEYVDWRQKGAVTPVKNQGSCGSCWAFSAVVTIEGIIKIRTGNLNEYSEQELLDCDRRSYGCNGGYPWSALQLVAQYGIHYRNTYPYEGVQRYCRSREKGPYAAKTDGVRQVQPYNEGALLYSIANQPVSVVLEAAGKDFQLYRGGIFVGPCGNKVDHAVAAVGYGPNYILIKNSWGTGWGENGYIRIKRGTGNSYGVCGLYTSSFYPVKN
The assay is described as above. The settings on record: pH 5.5, 37° C., 10 minutes. How it is done:
as §1

A further assay deals with T4, cathepsin S (Homo sapiens, UniProt P25774).
T4 construct: purchased Wako Pure Chemical Industries, Ltd
T4 sequence (P25774 115-331, species assumed): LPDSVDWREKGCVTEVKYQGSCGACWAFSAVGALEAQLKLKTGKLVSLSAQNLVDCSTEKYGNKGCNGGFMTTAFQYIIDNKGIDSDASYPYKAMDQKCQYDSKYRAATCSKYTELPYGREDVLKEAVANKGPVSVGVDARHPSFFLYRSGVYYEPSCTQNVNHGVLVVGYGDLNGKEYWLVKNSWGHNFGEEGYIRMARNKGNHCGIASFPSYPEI
Described as above. The following applies: pH 5.5, 37° C., 10 minutes. As for the experimental part: as §1

Assay [2] deals with T3, papain. Description: reverse zymography with papain on gelatin-containing SDS-polyacrylamide gel. The settings on record: 12.5% SDS-polyacrylamide gel with 0.1% gelatin, papain digestion pH 5.5, 37° C., 10 hours. An excerpt:
The inventor used a technique “reverse zymography” as a method of detecting protease inhibitory substance and detected a protease inhibitory substance located on the gel of SDS-polyacrylamide gel electrophoresis. The reverse zymography is based on a technique opposite of the normal zymography, and the basic principle of the reverse zymography is as follows. That is, a sample containing protease inhibitory substance is applied onto SDS-polyacrylamide gel containing gelatin, and electrophoresis is performed, followed by soaking the gel in a protease solution to degrade protein in the gel. Protease activity is inhibited on a portion where an inhibitory substance is present and gelatin of the portion avoids being degraded by protease and is stained with staining solution, which enables detection of inhibitory substance.
Using total milk protein and bovine lactoferrin (manufactured by Morinaga Milk Industry Co., Ltd.) as samples, electrophoresis (hereinafter, SDS-polyacrylamide gel electrophoresis is sometimes abbreviated to SDS-PAGE) was conducted with 12.5% SDS-polyacrylamide gel containing 0.1% of gelatin. After electrophoresis, the gel was washed by immersing it in a 2.5% Triton X-100 solution for 45 minutes, and further washed by repeating three times the operation of immersing the gel in distilled water for 45 minutes. […]

B1: transferrin: commercially available bovine transferrin (Nihon Pharmaceutical Co., Ltd.), SEQ ID No. 4 (protein, listed as Bos taurus)
chain: MRPAVRALLACAVLGLCLADPERTVRWCTISTHEANKCASFRENVLRILESGPFVSCVKKTSHMDCIKAISNNEADAVTLDGGLVYEAGLKPNNLKPVVAEFHGTKDNPQTHYYAVAVVKKDTDFKLNELRGKKSCHTGLGRSAGWNIPMAKLYKELPDPQESIQRAAANFFSASCVPCADQSSFPKLCQLCAGKGTDKCACSNHEPYFGYSGAFKCLMEGAGDVAFVKHSTVFDNLPNPEDRKNYELLCGDNTRKSVDDYQECYLAMVPSHAVVARTVGGKEDVIWELLNHAQEHFGKDKPDNFQLFQSPHGKDLLFKDSADGFLKIPSKMDFELYLGYEYVTALQNLRESKPPDSSKDECMVKWCAIGHQERTKCDRWSGFSGGAIECETAENTEECIAKIMKGEADAMSLDGGYLYIAGKCGLVPVLAENYKTEGESCKNTPEKGYLAVAVVKTSDANINWNNLKDKKSCHTAVDRTAGWNIPMGLLYSKINNCKFDEFFSAGCAPGSPRNSSLCALCIGSEKGTGKECVPNSNERYYGYTGAFRCLVEKGDVAFVKDQTVIQNTDGNNNEAWAKNLKKENFEVLCKDGTRKPVTDAENCHLARGPNHAVVSRKDKATCVEKILNKQQDDFGKSVTDCTSNFCLFQSNSKDLLFRDDTKCLASIAKKTYDSYLGDDYVRAMTNLRQCSTSKLLEACTFHKP
modifications: sig_peptide (1)...(19) Transferrin
As to B1, the “inhibition rate at each concentration (%)” value with cathepsin B (inhibitor 10^−4M) and in the assay with cathepsin L (inhibitor 10^−4M) was “more than 30%” throughout. In addition, in the assay with papain [1] (inhibitor 10^−3 M), the “inhibition of cysteine protease activity” value is listed as “completely inhibited”.

B2: human lactoferrin: commercially available human lactoferrin (Morinaga Milk Industry), SEQ ID No. 1 (protein, listed as Homo Sapiens)
chain: MKLVFLVLLFLGALGLCLAGRRRRSVQWCAVSQPEATKCFQWQRNMRKVRGPPVSCIKRDSPIQCIQAIAENRADAVTLDGGFIYEAGLAPYKLRPVAAEVYGTERQPRTHYYAVAVVKKGGSFQLNELQGLKSCHTGLRRTAGWNVPIGTLRPFLNWTGPPEPIEAAVARFFSASCVPGADKGQFPNLCRLCAGTGENKCAFSSQEPYFSYSGAFKCLRDGAGDVAFIRESTVFEDLSDEAERDEYELLCPDNTRKPVDKFKDCHLARVPSHAVVARSVNGKEDAIWNLLRQAQEKFGKDKSPKFQLFGSPSGQKDLLFKDSAIGFSRVPPRIDSGLYLGSGYFTAIQNLRKSEEEVAARRARVVWCAVGEQELRKCNQWSGLSEGSVTCSSASTTEDCIALVLKGEADAMSLDGGYVYTAGKCGLVPVLAENYKSQQSSDPDPNCVDRPVEGYLAVAVVRRSDTSLTWNSVKGKKSCHTAVDRTAGWNIPMGLLFNQTGSCKFDEYFSQSCAPGSDPRSNLCALCIGDEQGENKCVPNSNERYYGYTGAFRCLAENAGDVAFVKDVTVLQNTDGNNNEAWAKDLKLADFALLCLDGKRKPVTEARSCHLAMAPNHAVVSRMDKVERLKQVLLHQQAKFGRNGSDCPDKFCLFQSETKNLLFNDNTECLARLHGKTTYEKYLGPQYVAGITNLKKCSTSPLLEACEFLRK
modifications: sig_peptide (1)...(19) Lactoferrin
In the case of B2, the “inhibition rate at each concentration (%)” value with cathepsin B (inhibitor 10^−4M) was “almost completely inhibited”; in the assay with cathepsin B (inhibitor 10^−5M), “more than 80%”; with cathepsin L (inhibitor 10^−6M) it was “completely inhibited”; with cathepsin S (inhibitor 10^−4M), “almost completely inhibited”; in the assay with cathepsin S (inhibitor 10^−5M), “more than 80%”; with papain [1] (inhibitor 10^−6M), “completely inhibited”.

B3: bovine lactoferrin: commercially available bovine lactoferrin (Morinaga Milk Industry), 78 kDa, SEQ ID No. 2 (protein, listed as Bos taurus)
chain: MKLFVPALLSLGALGLCLAAPRKNVRWCTISQPEWFKCRRWQWRMKKLGAPSITCVRRAFALECIRAIAEKKADAVTLDGGMVFEAGRDPYKLRPVAAEIYGTKESPQTHYYAVAVVKKGSNFQLDQLQGRKSCHTGLGRSAGWIIPMGILRPYLSWTESLEPLQGAVAKFFSASCVPCIDRQAYPNLCQLCKGEGENQCACSSREPYFGYSGAFKCLQDGAGDVAFVKETTVFENLPEKADRDQYELLCLNNSRAPVDAFKECHLAQVPSHAVVARSVDGKEDLIWKLLSKAQEKFGKNKSRSFQLFGSPPGQRDLLFKDSALGFLRIPSKVDSALYLGSRYLTTLKNLRETAEEVKARYTRVVWCAVGPEEQKKCQQWSQQSGQNVTCATASTTDDCIVLVLKGEADALNLDGGYIYTAGKCGLVPVLAENRKSSKHSSLDCVLRPTEGYLAVAVVKKANEGLTWNSLKDKKSCHTAVDRTAGWNIPMGLIVNQTGSCAFDEFFSQSCAPGADPKSRLCALCAGDDQGLDKCVPNSKEKYYGYTGAFRCLAEDVGDVAFVKNDTVWENTNGESTADWAKNLNREDFRLLCLDGTRKPVTEAQSCHLAVAPNHAVVSRSDRAAHVKQVLLHQQALFGKNGKNCPDKFCLFKSETKNLLFNDNTECLAKLGGRPTYEEYLGTEYVTAIANLKKCSTSPLLEACAFLTR
modifications: sig_peptide (1)...(19) Lactoferrin
On to B3, for which the “band in reverse zymography using papain” value with papain [2] is on record as “positive band”.

The values are drawn from patent US20050176123A1, “Protease inhibitor” (Morinaga Milk Industry Co., Ltd., priority 2002, published 2005).
